Source: patent publication US20240109955A1

Key:
Assay in all cases: cell-based or functional assay
[1] = target: SARS-CoV-2 spike (S) protein, Omicron variant BA.2 (SARS-CoV-2) (UniProt P0DTC2)
[2] = target: SARS-CoV-2 spike protein, C.1.2 variant (SARS-CoV-2)
[3] = target: SARS-CoV-2 spike protein, Alpha variant (B.1.1.7) (SARS-CoV-2)
[4] = target: SARS-CoV-2 spike protein, Gamma variant (P.1) (SARS-CoV-2)
[5] = target: SARS-CoV-2 spike protein, Kappa variant (B.1.617.1) (SARS-CoV-2)
[6] = target: SARS-CoV-2 spike (S) protein, Omicron variant BA.2.12.1 (SARS-CoV-2) (UniProt P0DTC2)
[7] = target: SARS-CoV-2 spike protein, Mu variant (B.1.621) (SARS-CoV-2)
[8] = target: SARS-CoV-2 spike protein, Iota variant (B.1.526) (SARS-CoV-2)
[9] = target: SARS-CoV-2 spike protein, Delta variant (AY.1) (SARS-CoV-2)
[10] = target: SARS-CoV-2 spike (S) protein, Omicron variant BA.1 (SARS-CoV-2) (UniProt P0DTC2)
[11] = target: SARS-CoV-2 spike protein, Delta variant (B.1.617.2) (SARS-CoV-2)
[12] = target: SARS-CoV-2 spike protein, Beta variant 1 (B.1.351 v1) (SARS-CoV-2)
[13] = target: SARS-CoV-2 spike protein, Lambda variant (C.37) (SARS-CoV-2)
[14] = target: SARS-CoV-2 spike protein, Omicron variant (B.1.1.529) (SARS-CoV-2) (UniProt P0DTC2)

Chain of MX183 (A19-61 × B1-182) (bispecific antibody) (chain): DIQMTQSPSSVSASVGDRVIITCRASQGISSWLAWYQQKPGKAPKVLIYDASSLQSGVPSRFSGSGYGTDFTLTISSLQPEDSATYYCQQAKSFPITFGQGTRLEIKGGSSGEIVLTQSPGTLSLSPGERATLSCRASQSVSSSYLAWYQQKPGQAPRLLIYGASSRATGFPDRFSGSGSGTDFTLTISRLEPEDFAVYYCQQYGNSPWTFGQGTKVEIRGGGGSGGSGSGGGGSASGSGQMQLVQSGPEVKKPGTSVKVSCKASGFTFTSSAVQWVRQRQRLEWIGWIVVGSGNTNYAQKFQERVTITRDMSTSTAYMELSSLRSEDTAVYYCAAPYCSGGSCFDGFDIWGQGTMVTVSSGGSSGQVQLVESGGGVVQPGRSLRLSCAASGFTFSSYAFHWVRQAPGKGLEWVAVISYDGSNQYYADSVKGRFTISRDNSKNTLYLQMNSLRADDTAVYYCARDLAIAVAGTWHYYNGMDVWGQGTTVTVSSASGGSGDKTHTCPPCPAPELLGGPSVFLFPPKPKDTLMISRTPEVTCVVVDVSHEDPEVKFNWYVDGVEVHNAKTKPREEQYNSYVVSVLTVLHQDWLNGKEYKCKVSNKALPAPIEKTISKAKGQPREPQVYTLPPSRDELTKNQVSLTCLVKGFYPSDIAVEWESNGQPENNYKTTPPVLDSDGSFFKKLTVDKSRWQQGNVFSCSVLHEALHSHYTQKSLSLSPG
Chain of A19-46 mAb (antibody) (VH): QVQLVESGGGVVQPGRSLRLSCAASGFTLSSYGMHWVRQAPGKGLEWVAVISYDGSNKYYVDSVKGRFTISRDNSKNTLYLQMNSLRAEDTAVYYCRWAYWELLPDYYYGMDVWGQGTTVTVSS
Chain of A19-46 mAb (antibody) (VL): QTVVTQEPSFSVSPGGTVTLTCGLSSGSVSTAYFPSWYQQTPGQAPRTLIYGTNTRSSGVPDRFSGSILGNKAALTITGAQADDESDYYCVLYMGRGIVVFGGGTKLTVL

| Substance | IC50, pseudovirus neutralization [1] | IC80, pseudovirus neutralization [1] | IC50, pseudovirus neutralization [2] | IC80, pseudovirus neutralization [2] | IC50, pseudovirus neutralization [3] | IC80, pseudovirus neutralization [3] | IC50, pseudovirus neutralization [4] | IC80, pseudovirus neutralization [4] | IC50, pseudovirus neutralization [5] | IC80, pseudovirus neutralization [5] | IC50, pseudovirus neutralization [6] | IC80, pseudovirus neutralization [6] | IC50, pseudovirus neutralization [9] | IC80, pseudovirus neutralization [9] | IC50, pseudovirus neutralization [10] | IC80, pseudovirus neutralization [10] | IC50, pseudovirus neutralization [11] | IC80, pseudovirus neutralization [11] | IC50, pseudovirus neutralization [12] | IC80, pseudovirus neutralization [12] | further results |
| --- | --- | --- | --- | --- | --- | --- | --- | --- | --- | --- | --- | --- | --- | --- | --- | --- | --- | --- | --- | --- | --- |
| B1-182 mAb (antibody) | 2.34 nM | 8.19 nM | 0.0549 nM | 0.11 nM | 0.0262 nM | 0.0844 nM | 0.0182 nM | 0.0429 nM | 0.0261 nM | 0.086 nM | 0.739 nM | 5.92 nM | 0.008 nM | 0.0192 nM | 1.03 nM | 4.44 nM | 0.0099 nM | 0.0254 nM | 0.0357 nM | 0.139 nM | IC50, pseudovirus neutralization [7]: 0.0695 nM; IC80, pseudovirus neutralization [7]: 0.219 nM; IC50, pseudovirus neutralization [8]: 0.0639 nM; IC80, pseudovirus neutralization [8]: 0.183 nM; IC50, pseudovirus neutralization [13]: 0.0049 nM; IC80, pseudovirus neutralization [13]: 0.015 nM |
| MX183 (A19-61 × B1-182) (bispecific antibody) |  |  |  |  | 0.803 nM | 5.66 nM | 0.43 nM | 2.27 nM |  |  |  |  | 0.542 nM | 1.04 nM | > 66.7 nM | > 66.7 nM | 0.23 nM | 0.948 nM | 1.02 nM | 1.65 nM |  |
| A19-61 mAb (antibody) | 0.725 nM | 2.24 nM | 8.43 nM | > 66.7 nM | 0.175 nM | 0.325 nM | 0.135 nM | 0.288 nM | 0.0815 nM | 0.173 nM | 0.11 nM | 0.298 nM | 0.0557 nM | 0.121 nM | > 66.7 nM | > 66.7 nM | 0.209 nM | 0.292 nM | 0.0686 nM | 0.113 nM | IC50, pseudovirus neutralization [7]: 0.264 nM; IC80, pseudovirus neutralization [7]: 0.43 nM; IC50, pseudovirus neutralization [8]: 0.0418 nM; IC80, pseudovirus neutralization [8]: 0.0836 nM; IC50, pseudovirus neutralization [13]: 0.11 nM; IC80, pseudovirus neutralization [13]: 0.186 nM |
| S2E12 (antibody) |  |  |  |  |  |  |  |  |  |  |  |  |  |  |  |  |  |  |  |  | IC50, pseudovirus neutralization [14]: 8.8 nM; IC80, pseudovirus neutralization [14]: 38.5 nM |
| A23-58.1 (antibody) |  |  |  |  |  |  |  |  |  |  |  |  |  |  |  |  |  |  |  |  | IC50, pseudovirus neutralization [14]: 98.1 nM; IC80, pseudovirus neutralization [14]: 782 nM |
| A19-46 mAb (antibody) | 0.0645 nM | 0.177 nM | 11.6 nM | 21 nM | 0.19 nM | 0.486 nM | 0.26 nM | 0.7 nM | > 66.7 nM | > 66.7 nM | > 66.7 nM | > 66.7 nM | > 66.7 nM | > 66.7 nM | 0.958 nM | 2.28 nM | > 66.7 nM | > 66.7 nM | 0.807 nM | 2.07 nM | IC50, pseudovirus neutralization [7]: 1.34 nM; IC80, pseudovirus neutralization [7]: 3.81 nM; IC50, pseudovirus neutralization [8]: 0.803 nM; IC80, pseudovirus neutralization [8]: 1.88 nM; IC50, pseudovirus neutralization [13]: > 66.7 nM; IC80, pseudovirus neutralization [13]: > 66.7 nM |
